According to article PMC7335206:

Columns and labels:
[1] = molecular target: N-terminal transactivation domain (TAD) of the tumor suppressor protein p53, labeled with Alexa 488 and Alexa 594, biotinylated; assay: FRET or BRET; single-molecule three-color FRET, CW donor excitation; biotinylated TAD immobilized on PEG-coated glass via NeutrAvidin, 25 nM NCBD in solution; 10 mM Tris pH 7, 0 mM NaCl, 23 °C; maximum likelihood analysis of photon trajectories, 8-state model with acceptor blinking
[2] = molecular target: N-terminal transactivation domain (TAD) of the tumor suppressor protein p53, labeled with Alexa 488 and Alexa 594, biotinylated; assay: FRET or BRET; single-molecule three-color FRET, CW donor excitation; biotinylated TAD immobilized on PEG-coated glass via NeutrAvidin, 200 nM NCBD in solution; 10 mM Tris pH 7, 30 mM NaCl, 23 °C; maximum likelihood analysis of photon trajectories, 8-state model with acceptor blinking
[3] = molecular target: N-terminal transactivation domain (TAD) of the tumor suppressor protein p53, labeled with Alexa 488 and Alexa 594, biotinylated; assay: FRET or BRET; single-molecule three-color FRET, CW donor excitation; biotinylated TAD immobilized on PEG-coated glass via NeutrAvidin, 100 nM NCBD in solution; 10 mM Tris pH 7, 10 mM NaCl, 23 °C; maximum likelihood analysis of photon trajectories, 8-state model with acceptor blinking

Substance “nuclear coactivator binding domain (NCBD) of the CREB binding protein (CBP), S2066C, labeled with CF680R (domain or fragment)” has a Kd [1] of 123 nM, a kon [1] of 2.04e+09 M⁻¹ s⁻¹ and a Kd [2] of 2480 nM. For the same substance, the kon [2] was 5.2e+08 M⁻¹ s⁻¹, the Kd [3] was 520 nM and the kon [3] was 9.1e+08 M⁻¹ s⁻¹.
